The record followed here is IntAct's records for PubMed 15886098.

The chains are these.
B1: Tyrosine-protein kinase ABL2 (Homo sapiens), P42684 (parent)
chain: MGQQVGRVGEAPGLQQPQPRGIRGSSAARPSGRRRDPAGRTTETGFNIFTQHDHFASCVEDGFEGDKTGGSSPEALHRPYGCDVEPQALNEAIRWSSKENLLGATESDPNLFVALYDFVASGDNTLSITKGEKLRVLGYNQNGEWSEVRSKNGQGWVPSNYITPVNSLEKHSWYHGPVSRSAAEYLLSSLINGSFLVRESESSPGQLSISLRYEGRVYHYRINTTADGKVYVTAESRFSTLAELVHHHSTVADGLVTTLHYPAPKCNKPTVYGVSPIHDKWEMERTDITMKHKLGGGQYGEVYVGVWKKYSLTVAVKTLKEDTMEVEEFLKEAAVMKEIKHPNLVQLLGVCTLEPPFYIVTEYMPYGNLLDYLRECNREEVTAVVLLYMATQISSAMEYLEKKNFIHRDLAARNCLVGENHVVKVADFGLSRLMTGDTYTAHAGAKFPIKWTAPESLAYNTFSIKSDVWAFGVLLWEIATYGMSPYPGIDLSQVYDLLEKGYRMEQPEGCPPKVYELMRACWKWSPADRPSFAETHQAFETMFHDSSISEEVAEELGRAASSSSVVPYLPRLPILPSKTRTLKKQVENKENIEGAQDATENSASSLAPGFIRGAQASSGSPALPRKQRDKSPSSLLEDAKETCFTRDRKGGFFSSFMKKRNAPTPPKRSSSFREMENQPHKKYELTGNFSSVASLQHADGFSFTPAQQEANLVPPKCYGGSFAQRNLCNDDGGGGGGSGTAGGGWSGITGFFTPRLIKKTLGLRAGKPTASDDTSKPFPRSNSTSSMSSGLPEQDRMAMTLPRNCQRSKLQLERTVSTSSQPEENVDRANDMLPKKSEESAAPSRERPKAKLLPRGATALPLRTPSGDLAITEKDPPGVGVAGVAAAPKGKEKNGGARLGMAGVPEDGEQPGWPSPAKAAPVLPTTHNHKVPVLISPTLKHTPADVQLIGTDSQGNKFKLLSEHQVTSSGDKDRPRRVKPKCAPPPPPVMRLLQHPSICSDPTEEPTALTAGQSTSETQEGGKKAALGAVPISGKAGRPVMPPPQVPLPTSSISPAKMANGTAGTKVALRKTKQAAEKISADKISKEALLECADLLSSALTEPVPNSQLVDTGHQLLDYCSGYVDCIPQTRNKFAFREAVSKLELSLQELQVSSAAAGVPGTNPVLNNLLSCVQEISDVVQR
partner: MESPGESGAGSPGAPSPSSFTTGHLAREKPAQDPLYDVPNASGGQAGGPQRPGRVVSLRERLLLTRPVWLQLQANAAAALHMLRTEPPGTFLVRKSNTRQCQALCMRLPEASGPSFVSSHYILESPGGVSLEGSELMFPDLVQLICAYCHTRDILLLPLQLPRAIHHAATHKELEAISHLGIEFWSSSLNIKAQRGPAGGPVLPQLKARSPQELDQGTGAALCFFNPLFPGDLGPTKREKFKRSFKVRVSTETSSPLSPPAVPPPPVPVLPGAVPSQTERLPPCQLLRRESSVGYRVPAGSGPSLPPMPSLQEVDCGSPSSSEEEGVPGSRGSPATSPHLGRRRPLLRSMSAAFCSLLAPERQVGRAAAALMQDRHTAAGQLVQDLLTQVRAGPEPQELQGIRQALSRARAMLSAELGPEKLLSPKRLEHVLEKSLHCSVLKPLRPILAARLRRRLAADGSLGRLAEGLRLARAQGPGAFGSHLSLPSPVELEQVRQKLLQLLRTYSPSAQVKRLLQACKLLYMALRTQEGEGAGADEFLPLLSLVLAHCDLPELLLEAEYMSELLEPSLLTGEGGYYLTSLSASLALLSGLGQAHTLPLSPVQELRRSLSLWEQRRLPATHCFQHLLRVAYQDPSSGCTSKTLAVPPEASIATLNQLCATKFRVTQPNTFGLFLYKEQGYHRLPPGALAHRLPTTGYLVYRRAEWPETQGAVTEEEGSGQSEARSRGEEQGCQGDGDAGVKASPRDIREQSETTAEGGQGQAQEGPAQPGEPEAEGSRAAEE
B2: Ras and Rab interactor 1 (Homo sapiens), Q13671 (parent)
chain: B1 partner

The first assay covers variants of B1. Conditions: with rin1_human RIN1, Q13671.
In the case of K317R, the “effect of a mutation on the interaction” value is reported as “decreasing interaction”.

The variants in another assay derive from B2. As to conditions: with abl2_human ABL2, P42684.
As for Y36F;Y121F;Y148F, the “effect of a mutation on the interaction” value is listed as “decreasing interaction”.
